B1: human INCENP (121-210) -6His, GST removed (Fig. 2D) (domain or fragment)
chain: LRRVTRAAAAAAAATMALAAPSSPTPESPTMLTKKPEDNHTQCQLVPVVEIGISERQNAEQHVTQLMSTEPLPRTLSPTPASATAPTSQG
B2: human INCENP fragment (121-210) WT used in Fig. 6A (domain or fragment)
chain: YLRRVTRAAAAAAAATMALAAPSSPTPESPTMLTKKPEDNHTQCQLVPVVEIGISERQNAEQHVTQLMSTEPLPRTLSPTPASATAPTSQG
B3: human INCENP (160-210) -6His, GST removed (domain or fragment)
chain: HTQCQLVPVVEIGISERQNAEQHVTQLMSTEPLPRTLSPTPASATAPTSQG
B4: human INCENP (121-270) WT -6His, GST removed (domain or fragment)
chain: LRRVTRAAAAAAAATMALAAPSSPTPESPTMLTKKPEDNHTQCQLVPVVEIGISERQNAEQHVTQLMSTEPLPRTLSPTPASATAPTSQGIPTSDEESTPKKSKARILESITVSSLMATPQDPKGQGVGTGRSASKLRIAQVSPGPRDSP
B5: human Sgo1 fragment (405-494), Tyr-added, GST removed (domain or fragment)
chain: YAKRALKYTDEKETEGSKPTKTPTTTPPETQQSPHLSLKDITNVSLYPVVKIRRLSLSPKKNKASPAVALPKRRCTASVNYKEPTLASKLR

The binders below were run against T1, full-length human HP1α WT (hHP1α), recombinant (human, UniProt P45973 1-191) (assay: ITC).
T1 sequence (P45973 whole entry): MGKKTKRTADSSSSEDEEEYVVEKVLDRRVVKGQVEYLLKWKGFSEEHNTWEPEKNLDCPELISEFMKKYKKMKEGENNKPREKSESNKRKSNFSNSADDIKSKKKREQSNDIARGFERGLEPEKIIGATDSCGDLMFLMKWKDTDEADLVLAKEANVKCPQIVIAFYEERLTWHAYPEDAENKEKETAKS

Binder | Ka
B1 | 7.25e+07 M⁻¹
B2 | 1.82e+07 M⁻¹
B3 | 3.9e+07 M⁻¹
B4 | 2.35e+07 M⁻¹
B5 | 242000 M⁻¹

What follows are binders tested against human HP1α chromoshadow domain (CSD), recombinant (human) (assay: ITC).
Sequence of human HP1α chromoshadow domain (CSD), recombinant (human) (chain, as listed by the source): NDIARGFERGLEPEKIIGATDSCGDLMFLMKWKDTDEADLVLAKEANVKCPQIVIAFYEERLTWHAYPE

Binder | Ka
B3 | 2.56e+07 M⁻¹
YHTQCQLVPVVEIGISERQNAEQHVTQLMSTEPL (domain or fragment) [human INCENP (160-192), untagged version (Tyr-added), GST removed] | 2.57e+07 M⁻¹

Biological target: T1, full-length human HP1α WT (hHP1α), …
Assay: ITC
Remark: another data set of the same source

Binder | Kd
B1 | 14 nM
B2 | 55 nM
B3 | 25 nM

Biological target: human HP1α chromoshadow domain (CSD), recombinant (human)
Assay: ITC
Remark: another data set of the same source

Binder | Kd
B3 | 39 nM
YHTQCQLVPVVEIGISERQNAEQHVTQLMSTEPL (domain or fragment) [human INCENP (160-192), untagged version (Tyr-added), GST removed] | 39 nM

Reference: publication PMC11116813 (2024)
